Data as given in the supplement of paper PMC9170038.

Test system: MS2 coat protein
Assay: apparent KD of MS2 coat protein; designed switch direction (-1 OFF switch, 1 ON switch): 1; higher = weaker reporter binding
Summary of the method: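 Three titration conditions were used: no input, 200 uM small-molecule ligand, and an oligonucleotide input. In each, SNAP-549-labelled MS2 coat protein was raised from 0.7 or 1.5 nM, doubling, to 3 µM over designed RNA switches transcribed on Illumina chips by stalled E. coli RNA polymerase. Curve fits of normalised cluster fluorescence gave values whose per-design median over clusters is the apparent KD.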

[1] = input ligand: microRNA oligo, concentration not stated
[2] = Eterna round: R95, input ligand: microRNA oligo, concentration not stated
[3] = Eterna round: R95, input ligand: FMN 200 uM
[4] = Eterna round: R95, input ligand: none

| Sequence | apparent KD of MS2 coat protein (input ligand: FMN 200 uM) | apparent KD of MS2 coat protein [1] | apparent KD of MS2 coat protein (input ligand: none) | apparent KD of MS2 coat protein [2] | apparent KD of MS2 coat protein [3] | apparent KD of MS2 coat protein [4] |
| --- | --- | --- | --- | --- | --- | --- |
| GCGAGUGCCACAGGAUAUUCGGCUGUUUCGCUCGAAGAAGGGUGCCGCAUGCAAUAAAGAAAACAUGAGGAUCACCCAUGUGAA [Uszavege] (Eterna round: R96, puzzle: Same State NG 1) | 527 nM | 217 nM | 418 nM | – | – | – |
| UGGCUCAGAGCAGGAUAUAUGCGAUCACAUGAGGAUCACCCAUGUCUCGAGCUUCGGCUCGAGGCAUAGAAGGGCUCUGAGCCU [SSNG2/4-B3] (Eterna round: R96, puzzle: Same State NG 2) | 14.9 nM | 32.6 nM | 45.5 nM | – | – | – |
| CAUUCUUUUCCGGAGGAUAUGCUACCCUUUACAUGAGGAUCACCCAUGUUACCCUCUUCUUGUCAGUAGAAGGCCGUUUCUUAAC [Regan] (puzzle: Same State 2) | – | – | – | 27.3 nM | – | – |
| CGUCCGGCCUGAGCUGGACGGAAGCUUGUACAUGAGGAUCACCCAUGUUCAUGUGCAGGCUUUUUGCUCGUCUUGUG [salish99_mir208a_modof_jandersonlee] (puzzle: Sensor for hsa-mir-208a) | – | – | – | 18.8 nM | 19.8 nM | 23.4 nM |
| GCGAGCGUACUUGCUACAUGAGGAUCACCCAUGUUUUAUGGACAGGAUAUGGUACCGUUUCGGUACCAGAAGGGUCCACAUGUA [JL SSNG3 3.84] (Eterna round: R96, puzzle: Same State NG 3) | 130 nM | 579 nM | 453 nM | – | – | – |
| GUUACAUGAGGAUCACCCAUGUAUGUGUGGGAGUAAGUGUCUUAGGAUAUCUAGUAUUUUAUUUAAGAGAAGGAAGAUUGUUGU [JMF's solution 59] (Eterna round: R96, puzzle: Same State NG 3) | 130 nM | 93.7 nM | 112 nM | – | – | – |
| AGGCUCAGACGAGGAUAUGGUCAUGGCGCUUCGGCGCAUACAUGAGGAUCACCCAUGUAGGGUGAUCAGAAGGUGUCUGAGCCA [SSNG2/9-B1] (Eterna round: R96, puzzle: Same State NG 2) | 171 nM | 720 nM | 892 nM | – | – | – |
| AAAAUAAAUGCGAAAAUUAACCGCAACUGACAUGAGGAUCACCCAUGUGCUUCAAGCUCAGGCAUCUCUUAUCGUCA [Maares] (Eterna round: R96, puzzle: Sensor for hsa-mir-208a) | 112 nM | 67.9 nM | 105 nM | – | – | – |
| AGAGGAGGAGCAGGAUAUUCGAAGAAGGACGUGGAAGAAGGGUUCAUGCGAUGACAUGAGGAUCACCCAUGUACCGCGCGUUGA [AK SSNG1-V2-14] (Eterna round: R96, puzzle: Same State NG 1) | 185 nM | 78.6 nM | 156 nM | – | – | – |
| CCUUGUAGCGGAGGAUAUGGGCCUCACUCAGUCAAAGAGUGAGAAACAUGAGGAUCACCCAUGUCCCAGAAGGCCGCUGCUUGG [Estiveveza] (Eterna round: R96, puzzle: Same State NG 2) | – | 12.3 nM | – | – | – | – |
| AUAAAACAUGAGGAUCACCCAUGUCAACAAAGUCGAGGAUAUGGGCAAAUAAAAUAAGUACCAGAAGGCGAAUAAU [salish99_ss1_r3_017] (puzzle: Same State 1) | – | – | – | 106 nM | 34.1 nM | 108 nM |
| GCAGGACGAUAAUAUAUCUCACAUGAGGAUCACCCAUGUCGUGAGGAUAUGGAUCCUAAUUGGAUCCAGAAGGCAUGGUCCUGC [Fiskers NG3ss - 31] (Eterna round: R96, puzzle: Same State NG 3) | 18.5 nM | 14.2 nM | 20.7 nM | – | – | – |
| UGGCUCAGACGAGGAUAUAUGCGAUCACAUGAGGAUCACCCAUGUCUCGAGCUUCGGCUCGAGGCAUAGAAGGUGUCUGAGCCA [SSNG2/4-C2] (Eterna round: R96, puzzle: Same State NG 2) | 40.9 nM | 83.1 nM | 145 nM | – | – | – |
| UCGUCGACACAAAUUCGACAACAUGAGGAUCACCCAUGUCCACAGGAUAUCGGCAGCUUAUGCUCCGAGAAGGGUGGUUAGAUU [Beage Mod] (Eterna round: R96, puzzle: Same State NG 3) | 435 nM | 664 nM | 605 nM | – | – | – |
| AACAAUCUAUCUGAGGAUAUCAUGAAAUAAACAUGAGGAUCACCCAUGUGCAGGAAAACUUCAUAUGAGAAGGCAGAUAGAUUGA [salish99_ss2_r3_045] (puzzle: Same State 2) | – | – | – | 27.7 nM | 17.5 nM | 26.4 nM |
| GUGGUCAGACAUGAGGAUCACCCAUGUGGAAUAAAUAAGGAGAAGGAUAUUAAAUAUAGGAUAUAUAAGAAGGUCUGGUUGGUG (Eterna round: R96, puzzle: Same State NG 3) | – | 65.2 nM | – | – | – | – |

| Sequence | apparent KD of MS2 coat protein (input ligand: FMN 200 uM) | apparent KD of MS2 coat protein [1] | apparent KD of MS2 coat protein (input ligand: none) | apparent KD of MS2 coat protein [2] | apparent KD of MS2 coat protein [3] | apparent KD of MS2 coat protein [4] |
| --- | --- | --- | --- | --- | --- | --- |
| AGCCGAGACACAGGAUAUACAUGUAUACAUGAGGAUCACCCAUGUAGCAACACGUGGUAGUGAUUGUAGAAGGGUGCUCGGCGC [Omei SS(NG)2 Cv13] (Eterna round: R96, puzzle: Same State NG 2) | 20.4 nM | 32 nM | 36.8 nM | – | – | – |
| GUGGCGGGUUGAGGAUAUUGGUUGCCUAUGUUUUACAUGAGGAUCACCCAUGUGGGUUGCGGUUUCGAGAAGGUAGGUUGCUGG [salish99_SSNG2_r04_047] (Eterna round: R96, puzzle: Same State NG 2) | 420 nM | 228 nM | 347 nM | – | – | – |
| AACAAUCUAUCUGAGGAUAUCAUGAAAUAAACAUGAGGAUCACCCAUGUGCAGGAAAACUGCAUAUGAGAAGGUAGAUAGAUUGA [salish99_ss2_r3_050] (puzzle: Same State 2) | – | – | – | 140 nM | 176 nM | 218 nM |
| AGCUAUUAAUCAGGAUAUAGGGACAUGAGGAUCACCCAUGUAUACAUGAUGAAAUGUGGUCACGUCUAGAAGGGAUUACUAACA [SameState NG2 #41] (Eterna round: R96, puzzle: Same State NG 2) | 150 nM | 184 nM | 262 nM | – | – | – |
| UGUUAUUAGACAGGAUAUUGAAUGUUAAGUAUUAACAUGAGGAUCACCCAUGUAUUUCAUUCGUACAAGAAGGGUCAUGUUCCU [JR_SSNG2_Sub017] (Eterna round: R96, puzzle: Same State NG 2) | – | 162 nM | – | – | – | – |
| CUGACAUGUCAAGGAUAUCACGUCGAUUAGACGUGAGAAGGUGAUCUACACAUGAGGAUCACCCAUGUGUUACGUGGGAGUCAG [Brourd's SSNG1/1-A2 mod 19] (Eterna round: R96, puzzle: Same State NG 1) | 54.9 nM | 113 nM | 162 nM | – | – | – |
| CGGGAGAUCGUAGGAUAUCUAGGAUAUGAACGAGGAUCACCCGAGCAGCAUCAGCGCAUCAGAGGAGAGAAGGACGAUCAUGCG [pwkr ssNG2 2F5 2FMN.6] (Eterna round: R96, puzzle: Same State NG 2) | 751 nM | 31.7 nM | 741 nM | – | – | – |
| UAUAAACAUGAGGAUCACCCAUGUAAUAAUAUGGGAGGAUAUCAGAUUUAAUUUAAUUUAUGAGAAGGCCUAAUAU [Mat - Same State 1 - Mod of Eli - D66] (puzzle: Same State 1) | – | – | – | 491 nM | 34.3 nM | 825 nM |
| UUAUUCUAUAUAGGAUAUUGAUGCAAUUUACCUCAAGAAGGAUAUACAUGAGGAUCACCCAUGUUGGAUAGGGUUAGUUUGUUU [JR_SSNG1_Sub081] (Eterna round: R96, puzzle: Same State NG 1) | – | 56 nM | – | – | – | – |
| GUUACAUGAGGAUCACCCAUGUAUGUGUGGGAGUAAGUGUCUUAGGAUAUCUAGUAUUUAAUUUGAGAGAAGGAAGAUUGUUGU [JMF's solution 70] (Eterna round: R96, puzzle: Same State NG 3) | 138 nM | 83.9 nM | 147 nM | – | – | – |
| UGUUGUAUUACAGGAUAUCUAUUAUUUUGAUUUAGAGAAGGGUAUUCACAUGAGGAUCACCCAUGUAUAUACGAGGAAGUUGUG [JMF's solution 22] (Eterna round: R96, puzzle: Same State NG 1) | – | 34.4 nM | – | – | – | – |
| ACAUGAGACCGAGGAUAUUUUGUACCUACAUGUGACAUGAGGAUCACCCAUGUGGUAAGUAUGAGAAAGAAGGCGGAGAUAUGU [Equivalence 20 - Jieux - Same State NG 2] (Eterna round: R96, puzzle: Same State NG 2) | 22.4 nM | 24.8 nM | 32.6 nM | – | – | – |
| GAGAGAGGGUGAGGAUAUUUAGUGAUAAUGAUAAAAGAAGGCACAGACAUGAGGAUCACCCAUGUGGGAAUAAUCCAGAGAGAG [Parity 4 - Jieux - Same State NG 1] (Eterna round: R96, puzzle: Same State NG 1) | – | 238 nM | – | – | – | – |
| CGUCGUUUGAUAGGAUAUCGCUUUGCAUGAGGAUCACCCAUGUUUACCACGCUGGUUUUUCUUUCCGAGAAGGAUUCUGAUGUU [salish99_SSNG02_r04_024] (Eterna round: R96, puzzle: Same State NG 2) | 42 nM | 29.2 nM | 39.6 nM | – | – | – |
| GCUAGAAAUAAAGCCAACAUGAGGAUCACCCAUGUAUGUUGGUAGGAUAUCGUUUGCAAAGCAAACGAGAAGGGCCAAACUAGC [Mat - Same State NG 3 - JL Mod - D20] (Eterna round: R96, puzzle: Same State NG 3) | 86.5 nM | 104 nM | 137 nM | – | – | – |
